From article PMC10731240

How the values were obtained:
[1] = molecular target: Leishmania tarentolae PP1-8e, endogenously HA-tagged; experiment: co-IP (anti-protein A affinity resin, Western blot band quantification); conditions: parent: 1; read off a plot
[2] = molecular target: LtPP1-8e F305A, Pd-tagged (Leishmania tarentolae); experiment: co-IP; L. tarentolae cell extract; Pd-tagged PP1 (overexpressed from pSNSAP1) held on IgG Sepharose beads, 4 h at 4 °C, washed three times in PA-150 buffer; endogenously HA-tagged PNUTS detected by anti-HA Western blot; %IP relative to WT PP1-8e
[3] = molecular target: LtPP1-8e CΔ23 (23 amino acid C-terminal extension deleted), Pd-tagged (Leishmania tarentolae); experiment: as above
[4] = molecular target: LtPP1-8e D290A, Pd-tagged (Leishmania tarentolae); experiment: as above
[5] = molecular target: LtPP1-8e with ^310DHK^312 mutated to alanine, Pd-tagged (Leishmania tarentolae); experiment: as above
[6] = molecular target: LtPP1-8e I217A, Pd-tagged (Leishmania tarentolae); experiment: as above
[7] = molecular target: LtPP1-8e D292A, Pd-tagged (Leishmania tarentolae); experiment: as above
[8] = molecular target: LtPP1-8e CΔ11 (final 11 amino acids deleted), Pd-tagged (Leishmania tarentolae); experiment: as above
[9] = molecular target: LtPP1-8e with ^260LP^261 mutated to alanine, Pd-tagged (Leishmania tarentolae); experiment: as above
[10] = molecular target: LtPP1-8e 359 to 362A, Pd-tagged (Leishmania tarentolae); experiment: as above
[11] = molecular target: LtPP1-8e 109–134Δ (26 amino acid insertion deleted), Pd-tagged (Leishmania tarentolae); experiment: as above
[12] = molecular target: LtPP1-8e I360A, Pd-tagged (Leishmania tarentolae); experiment: as above
[13] = molecular target: LtPP1-8e 354–358A, Pd-tagged (Leishmania tarentolae); experiment: as above
[14] = molecular target: LtPP1-8e 109–114A (GGVFG to alanine), Pd-tagged (Leishmania tarentolae); experiment: as above
[15] = molecular target: LtPP1-8e 263–265A, Pd-tagged (Leishmania tarentolae); experiment: as above
[16] = molecular target: Leishmania tarentolae PNUTS, endogenously HA-tagged; experiment: co-IP (PP1-8e-Pd pull-down, Western blot band quantification); conditions: parent: 1; read off a plot
[17] = molecular target: Leishmania tarentolae PNUTS, endogenously HA-tagged; experiment: co-IP (anti-protein A affinity resin, Western blot band quantification); conditions: parent: 1; read off a plot
[18] = molecular target: LtPNUTS D101A, Pd-tagged (Leishmania tarentolae); experiment: co-IP; L. tarentolae cell extract; Pd-tagged PNUTS (overexpressed from pSNSAP1) held on IgG Sepharose beads, 4 h at 4 °C, washed three times in PA-150 buffer; endogenously HA-tagged PP1-8e, JBP3 or Wdr82 detected by anti-HA Western blot; %IP relative to WT PNUTS
[19] = molecular target: LtPNUTS R94A, Pd-tagged (Leishmania tarentolae); experiment: as above
[20] = molecular target: LtPNUTS L111A, Pd-tagged (Leishmania tarentolae); experiment: as above
[21] = molecular target: LtPNUTS V97A, Pd-tagged (Leishmania tarentolae); experiment: as above

Substance: Leishmania tarentolae PNUTS, Pd-tagged (WT, full-length) F118A
- ratio to parent [1]: 0.22

Substance: Leishmania tarentolae PNUTS, Pd-tagged (WT, full-length) H114A; V115A
- ratio to parent [1]: 0.17

Substance: Leishmania tarentolae PNUTS, Pd-tagged (WT, full-length) K95A
- ratio to parent [1]: 1

Substance: Leishmania tarentolae PNUTS, Pd-tagged (WT, full-length) R125A
- ratio to parent [1]: 0.92

Substance: Leishmania tarentolae PNUTS, Pd-tagged (WT, full-length) W99A
- ratio to parent [1]: 0.08

Substance: Leishmania tarentolae PNUTS, endogenously HA-tagged (natural protein)
- percent reduction of co-IP against WT PP1-8e [2]: 80%
- percent loss of co-IP against WT PP1-8e [3]: 80%
- percent reduction of co-IP against WT PP1-8e [4]: 50%
- percent decrease of co-IP against WT PP1-8e [5]: 20%
- percent reduction of co-IP against WT PP1-8e [6]: 50%
- percent reduction of co-IP against WT PP1-8e [7]: 60%
- percent reduction of co-IP against WT PP1-8e [8]: 30%
- percent of co-IP lost against WT PP1-8e [9]: 80%
- percent reduction of co-IP against WT PP1-8e [10]: 80%
- percent reduction of co-IP against WT PP1-8e [11]: 80%
- percent reduction of co-IP against WT PP1-8e [12]: 80%
- percent reduction of co-IP against WT PP1-8e [13]: 50%
- percent reduction of co-IP against WT PP1-8e [14]: 80%
- percent reduction of co-IP against WT PP1-8e [15]: 90%

Substance: Leishmania tarentolae PP1-8e, Pd-tagged (WT) D116A; K118A; K119A; R121A
- ratio to parent [16]: 0.79

Substance: Leishmania tarentolae PP1-8e, Pd-tagged (WT) D265A
- ratio to parent [16]: 0.51

Substance: Leishmania tarentolae PP1-8e, Pd-tagged (WT) F307A
- ratio to parent [17]: 0

Substance: Leishmania tarentolae PP1-8e, Pd-tagged (WT) I346A
- ratio to parent [17]: 0.025

Substance: Leishmania tarentolae PP1-8e, Pd-tagged (WT) R314A
- ratio to parent [17]: 0.01

Substance: Leishmania tarentolae PP1-8e, Pd-tagged (WT) S126A; D129A; D130A; Y133A; S134A
- ratio to parent [16]: 0.84

Substance: Leishmania tarentolae PP1-8e, Pd-tagged (WT) T348A
- ratio to parent [17]: 0.82

Substance: Leishmania tarentolae PP1-8e, Pd-tagged (WT) Y96A
- ratio to parent [17]: 0.68

Substance: Leishmania tarentolae PP1-8e, endogenously HA-tagged (enzyme)
- percent reduction of co-IP against WT PNUTS [18]: 80%
- percent reduction of co-IP against WT PNUTS [19]: 50%
- percent reduction of co-IP against WT PNUTS [20]: 80%
- fold decrease of co-IP against WT PNUTS [21]: 5 fold
